Reference: US20020151473A1
pKd: −log10 of the molar value.

Molecular target: IgG
Assay: microcalorimetry and surface plasmon resonance (same value stated for both)

cyclized (locked helix) peptide FNM(5)QQRRFY(6)ALH
pKd: 4.00
